Assay results: publication PMC10823224 (2024)

Target: fusion-competent ectodomain of influenza virus A/PR8/34 (Ecto-PR8/34) hemagglutinin (influenza virus A/PR/8/34, UniProt P03452 18-528)
Experiment: BLI

Chain of fusion-competent ectodomain of influenza virus A/PR8/34 (Ecto-PR8/34) hemagglutinin (P03452 18-528): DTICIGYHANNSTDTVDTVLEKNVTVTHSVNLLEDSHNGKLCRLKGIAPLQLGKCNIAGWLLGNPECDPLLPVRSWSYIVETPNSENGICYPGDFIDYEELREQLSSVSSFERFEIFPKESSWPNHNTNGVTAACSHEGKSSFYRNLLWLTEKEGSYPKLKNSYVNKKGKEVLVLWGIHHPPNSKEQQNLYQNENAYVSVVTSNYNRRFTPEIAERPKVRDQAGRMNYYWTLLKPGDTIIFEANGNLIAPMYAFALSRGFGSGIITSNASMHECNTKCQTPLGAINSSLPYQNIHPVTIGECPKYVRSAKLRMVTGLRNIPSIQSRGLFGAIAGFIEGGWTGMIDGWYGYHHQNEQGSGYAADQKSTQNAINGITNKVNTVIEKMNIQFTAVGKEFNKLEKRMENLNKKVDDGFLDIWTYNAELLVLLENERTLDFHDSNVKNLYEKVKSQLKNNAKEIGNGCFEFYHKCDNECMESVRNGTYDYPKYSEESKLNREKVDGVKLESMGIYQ

B1: anti-HA antibody C179 (antibody, V domains shown)
VH: EVKLVESGGGLVQPGGSLRLSCGTSGFTLTDDYMTWVRQPPGKALEWLGFIRDRANGYTTEYSASVKGRFTISRDNSQSIVYLQMNTLRVEDSATYYCARPKGYFPYAMDYWGQGTSVIVSS
VL: DIQMTQSPASQSASLGESVTITCLASQTIGTWLAWYQQKPGKSPQLLIYAATSLADGVPSRFSGSGSGTKFSFKISSLQAEDFVSYYCQQLYSTPWTFGGGTRLEIKR
B1 showed a Kd of 18.4 nM.
